According to publication doi:10.1101/2020.08.16.252742:

Key:
[1] = molecular target: HIV-1 NL4-3 Env glycoprotein (unlabelled) on HIV-1 Gag-GFP pseudovirions (HIV-1 NL4-3); assay: single-molecule photobleaching
[2] = molecular target: HIV-1 JR-FL Env glycoprotein (unlabelled) on HIV-1 Gag-GFP pseudovirions (HIV-1 JR-FL); assay: single-molecule photobleaching

| Substance | stoichiometry N [1] [Envs] | stoichiometry N [2] [Envs] |
| --- | --- | --- |
| HIV-1 NL4-3 Env glycoprotein (unlabelled) on HIV-1 Gag-GFP pseudovirions (complex) | > 3 |  |
| HIV-1 JR-FL Env glycoprotein (unlabelled) on HIV-1 Gag-GFP pseudovirions (complex) |  | > 2 |
